Like-named read-outs stand apart in the source and are kept apart here. *1 amine or outer side, *2 acyl side, *3 side chain or, on linkers, in order; H or OH if unused. Where a SMILES comes first, the peptide text is derived from it. Bridges are numbered along the chain shown (N, C = ends). [ ]: non-standard residue; d: D form. The star is where a group is joined. DOTA = O=C(O)CN1CCN(CC(=O)O)CCN(CC(=O)*)CCN(CC(=O)O)CC1; 1Nal = N[C@@H](Cc1cccc2ccccc12)C(=O)O; TBMB = c1c(C[*:1])cc(C[*:3])cc1C[*:2]; Palmitoyl = CCCCCCCCCCCCCCCC(=O)*; Tle = CC(C)(C)[C@H](N)C(=O)O; βAla = NCCC(=O)O; Sar = CNCC(=O)O
Assays:
HT1080 tumor = assay: Organ distribution of 177Lu-labelled peptides in HT1080 xenograft mice; format: in vivo, BALB/c nu/nu mice; settings: 177Lu-labelled, 48 hr p.i.
Experimental: (§1) General procedure for radiolabelling with Lu-177.
(§2) • 50 μL 0.25 M Na-Acetate buffer pH 5.2+0.1% Tween 20; • 10 μL [Lu-177]LuCl3 in 0.05 M HCl; and • 2 μL of the diluted peptide (2 nmols). […]
(§3) Organ distribution studies, general method: For organ distribution, the respective dose is prepared by dilution of the labeling reaction mixture in injection buffer (0.25 M Na-Acetate pH 7+0.05% Tween20). The ^177Lu-radiolabeled peptide was injected via the tail vein of the nu/nu mice (50 kBq per mouse), transplanted with the respective cell line. At indicated time points after injection the animals were sacrificed. Blood, heart, lung, spleen, liver, kidney, muscle, brain, femur, and the tumor were dissected, blotted dry, and weighed. The radioactivity was measured with a γ-counter (CobraII; Canberra Packard) along with a sample of the injection solution to calculate the percentage injected dose per gram of tissue (% ID/g).
(§4) The γ- and β-emitter ^177LuCl3 (NEZ307D, Perkin Elmer, in 0.04 M HCl), with a t1/2 of 6.7 days was used for both in vivo biodistribution and internalization studies. Labeling reactions were performed by adding 10 μL ^177LuCl3 (˜10 MBq) in 50 mM HCl, 2 μL of the diluted peptide (1 mM solution in 50 mM HEPES buffer pH 7+0.1% Tween 20 diluted from a 10 mM DMSO stock) to 50 μL 50 mM HEPES buffer pH 7 supplemented with 0.1% Tween 20. The reaction mixture was incubated at 98° C. for 10 minutes. The radiochemical yield (RCY) was determined using high performance liquid chromatography (HPLC) system equipped with a Latek P402 (Latek, Eppelheim, Germany), a HITACHI variable UV detector (absorbance was measured at 214 and 254 nm) and a gamma detector (Bioscan, WA, USA), using a Chromolith RP-18 column (100×4.6 mm; Merck). The analytical HPLC run was performed at 4 mL/min, using a linear A (0.1% trifluoroacetic acid (TFA) in water) to B (0.1% TFA in acetonitrile) gradient (0% B to 100% B in 6 min). Thin-layer chromatography was performed in parallel to confirm the results of the radio-HPLC. The RCY was generally >95%, and thus, the output of labelling reactions was directly diluted with the appropriate buffer and further unlabeled peptide if required, to use in subsequent experiments.
(§5) 5×10^6 cells of HT1080 were subcutaneously inoculated into the right trunk of male 6-week-old BALB/c nu/nu mice (Charles River Laboratories). The tumors were grown for approximately 1 week, to a maximum size of ˜200 mm^3. Respective doses were prepared by mixing a fixed quantity of 5 pmoles ^177Lu labelled peptides (at approx. 50 kBq) with different quantities of non-labelled peptide (derived from 1 mM stock solution in 0.25 M sodium acetate pH 7+0.05% Tween20) in 100 μL injection buffer (0.25 M sodium acetate pH 7+0.05% Tween20). 3 animals were used per dose and timepoint. Radiolabelled peptide solutions were injected via the tail vein, followed by sacrifice at various time points. Organs of interest (blood, heart, lung, spleen, liver, kidney, muscle, small intestine, brain, HT1080 tumor) were dissected, blotted dry, and weighed. The radioactivity was measured using a gamma counter and calculated as % ID/g.

[1] = as above; format: in vivo, BALB/c nu/nu mice; settings: male, BALB/c nu/nu, iv, total radioactivity
Experimental: as §1, §2, §3, §4, §5

MT1-MMP hemopexin domain = MT1-MMP hemopexin domain (Homo sapiens, UniProt P50281); assay: Fluorescence polarization direct binding / competition assay to MT1-MMP hemopexin domain
Experimental: Direct Binding Fluorescence Polarization or Anisotropy Assays are performed by titrating a constant concentration of fluorescent tracer (here, the fluoresceinated bicyclic peptide to be studied) with its binding partner (here, the MT1-MMP hemopexin domain). As the concentration of binding partner increases during the titration, the polarization signal changes in proportion to the fraction of bound and unbound material. This allows determination of […] (Kd) quantitatively. Assay data can be fit using standard ligand binding equations.
Typically, concentrations of the tracer are ideally well below the Kd of the tracer: titrant pair, and concentrations chosen are usually at ˜1 nM or less. The titrant (binding partner) concentration is varied from 0.1 nM up to typically 5 μM. The range is chosen such that the maximum change in fluorescent polarization can be observed. Buffers employed are phosphate buffered saline in the presence of 0.01% Tween. Experiments were run in black 384 well low-bind/low volume plates (Corning 3820), and the fluorescent polarization signal was measured using a BMG Pherastar FS plate reader. Fluorescent tracers referred to in the text are bicyclic peptides that have been fluoresceinated using 5,6-carboxyfluorescein. Fluoresceination may be performed on the N-terminal amino group of the peptide, which is separated from the bicycle core sequence by a sarcosine spacer (usually Sar10 (SEQ ID NO: 73)). This can be done during Fmoc solid phase synthesis or post-synthetically (after cyclization with the molecular scaffold reagent and purification) if the N-terminal amino group is unique to the peptide. Fluoresceination can also be performed on the C-terminus, usually on a Lysine introduced as the first C-terminal residue, which is then separated from the bicycle core sequence by a sarcosine spacer (usually Sar6 (SEQ ID NO: 69)). Thus, N-terminal tracers can have a molecular format described as Fluo-Ala-Sar10-A (SEQ ID NO: 72) (BicycleCoreSequence), and (BicycleCoreSequence)-A-Sar6-K (Fluo) (SEQ ID NO: 67) for a C-terminally fluoresceinated construct.
Fluorescent tracers used in the Examples are A-(17-69)-A-Sar6-K (Fluo) (SEQ ID NO: 67), A-(17-69-07)-A-Sar6-K (Fluo) (SEQ ID NO: 67), and A-(17-69-12)-A-Sar6-K (Fluo) (SEQ ID NO: 67). Due to the acidic nature of the 17-69 fluorescent peptides, they were typically prepared as concentrated DMSO stocks, from which dilution were prepared in 100 mM Tris pH 8 buffer.
Due to their high affinities to the MT1-MMP Hemopexin domain (PEX), the fluoresceinated derivatives of 17-69-07 and 17-69-12 (denoted as 17-69-07-N040 and 17-69-12-N005, respectively) can be used for competition experiments (using FP for detection). […] Dissociation of the complex can be measured quantitatively, and the Kd of the competitor (titrant) to the target protein determined. The advantage of the competition method is that the affinities of non-fluoresceinated bicyclic peptides can be determined accurately and rapidly.
Subsequently, the non-fluorescent competitor bicyclic peptide (usually just the bicycle core sequence) is titrated, such that it displaces the fluorescent tracer from the target protein. The displacement of the tracer is measured and associated with a drop in fluorescence polarization. The drop in fluorescence polarization is proportional to the fraction of target protein bound with the non-fluorescent titrant, and thus is a measure of the affinity of titrant to target protein. […]

CCCCCCCCCCCCCCCC(=O)NCCC(=O)N(C)CC(=O)N(C)CC(=O)N(C)CC(=O)N(C)CC(=O)N(C)CC(=O)N[C@@H](CCCCNC(=O)CN1CCN(CC(=O)O)CCN(CC(=O)O)CCN(CC(=O)O)CC1)C(=O)N(C)CC(=O)N(C)CC(=O)N(C)CC(=O)N(C)CC(=O)N(C)CC(=O)N(C)CC(=O)N(C)CC(=O)N(C)CC(=O)N(C)CC(=O)N(C)CC(=O)N[C@@H](C)C(=O)N[C@H]1CSCc2cc3cc(c2)CSC[C@H](NC(=O)[C@@H](C)NC(=O)[C@H](Cc2cccc4ccccc24)NC(=O)[C@H](CCC(=O)O)NC(=O)[C@H](CC(N)=O)NC(=O)[C@@H](C)NC1=O)C(=O)N[C@@H](CCC(=O)O)C(=O)N[C@@H](CC(=O)O)C(=O)N[C@@H](Cc1ccccc1)C(=O)N[C@@H](Cc1ccc(O)cc1)C(=O)N[C@@H](CC(=O)O)C(=O)N[C@@H](C(C)(C)C)C(=O)N[C@H](C(N)=O)CSC3 [I-25] ({Palmitoyl-βAla}-[Sar][Sar][Sar][Sar][Sar]K(DOTA)[Sar][Sar][Sar][Sar][Sar][Sar][Sar][Sar][Sar][Sar]AC[dA]NE[1Nal][dA]CEDFYD[Tle]C-NH2; linker 18-24-31 via TBMB)
signals in spleen, liver and small intestine (HT1080 tumor): < 4.5% | tissue to tissue ratio at 6 h ([1]; HT1080 tumor / blood, 750 pmole/mouse, 6 hrs, read-out: tumour to blood signal ratio): 19 | tissue to tissue ratio at 48 h ([1]; HT1080 tumor / blood, 750 pmole/mouse, 48 hrs, read-out: tumour to blood signal ratio): 97 | tissue uptake at 2 h ([1]; HT1080 tumor, 750 pmole/mouse, 2 h p.i., read-out: tumour accumulation): 25 ± 1.61 %ID/g | tissue uptake at 6 h ([1]; HT1080 tumor, 750 pmole/mouse, 6 h p.i., read-out: tumor uptake (maximum)): 35.9 ± 1.11 %ID/g | tissue uptake at 48 h ([1]; HT1080 tumor, 177Lu-labelled, 48 hr p.i., 750-1000 pmole/mouse, read-out: tumour signal): ~26 %ID/g | tissue uptake at 48 h ([1]; mouse, HT1080 tumor, 750 pmoles injected dose, 48 h p.i., read-out: tumor accumulation in HT1080 xenografts): 24.1 ± 2.5 %ID/g | Kd (MT1-MMP hemopexin domain): 2.25 ± 0.5 nM

Reference: patent US12552837B2, “Bicyclic peptide ligands with detectable moieties and uses thereof” (BicycleRD Limited, priority 2017, dated 2026)
